Assay results from the Human Domainome abundance scans (Beltran et al. 2025).
± gives the uncertainty stated by the source.

B1: Cold shock protein CspB, residues 1 to 66; numbered along this chain, P41016 (parent)
chain: MQRGKVKWFNNEKGYGFIEVEGGSDVFVHFTAIQGEGFKTLEEGQEVSFEIVQGNRGPQAANVVKL

Variants of: B1
Assay: abundance fitness (aPCA) (normalised: wild type 0, dead -1); higher = more abundant; growth selection in yeast, the domain comes from the species named
Details: Bacillus caldolyticus

Row | Variant | abundance fitness
1 | Q34W | -0.049 ± 0.043
2 | Q34Y | -0.073 ± 0.082
3 | G35C | 0.02 ± 0.069
4 | G35D | -0.004 ± 0.076
5 | G35E | -0.001 ± 0.038
6 | G35F | -0.067 ± 0.059
7 | G35I | -0.108 ± 0.061
8 | G35K | -0.112 ± 0.056
9 | G35L | -0.127 ± 0.025
10 | G35M | 0.002 ± 0.035
11 | G35N | -0.06 ± 0.11
12 | G35P | -0.172 ± 0.045
13 | G35Q | 0.001 ± 0.045
14 | G35R | -0.111 ± 0.033
15 | G35S | -0.035 ± 0.039
16 | G35T | -0.084 ± 0.054
17 | G35V | -0.033 ± 0.037
18 | G35W | -0.134 ± 0.044
19 | G35Y | -0.068 ± 0.074
20 | E36C | -0.042 ± 0.058
21 | E36D | -0.019 ± 0.063
22 | E36F | -0.023 ± 0.047
23 | E36G | -0.004 ± 0.034
24 | E36H | -0.047 ± 0.085

Row | Variant | abundance fitness
25 | E36L | -0.024 ± 0.031
26 | E36M | -0.085 ± 0.046
27 | E36N | -0.037 ± 0.11
28 | E36P | -0.017 ± 0.043
29 | E36Q | 0.021 ± 0.079
30 | E36R | 0.006 ± 0.039
31 | E36S | -0.007 ± 0.036
32 | E36T | -0.006 ± 0.044
33 | E36V | -0.003 ± 0.033
34 | E36W | -0.017 ± 0.043
35 | G37A | -0.082 ± 0.035
36 | G37C | -0.049 ± 0.048
37 | G37D | -0.133 ± 0.074
38 | G37E | -0.05 ± 0.043
39 | G37F | -0.153 ± 0.055
40 | G37H | -0.036 ± 0.048
41 | G37I | -0.18 ± 0.054
42 | G37L | -0.126 ± 0.029
43 | G37M | -0.117 ± 0.034
44 | G37P | -0.119 ± 0.048
45 | G37Q | -0.078 ± 0.056
46 | G37R | -0.083 ± 0.034
47 | G37S | -0.072 ± 0.034
48 | G37T | -0.069 ± 0.041

Row | Variant | abundance fitness
49 | G37V | -0.086 ± 0.033
50 | G37W | -0.141 ± 0.041
51 | G37Y | -0.074 ± 0.059
52 | F38C | -0.103 ± 0.058
53 | F38D | -0.12 ± 0.054
54 | F38E | -0.078 ± 0.043
55 | F38G | -0.048 ± 0.032
56 | F38H | -0.132 ± 0.067
57 | F38I | -0.041 ± 0.067
58 | F38K | -0.049 ± 0.051
59 | F38L | -0.086 ± 0.027
60 | F38M | -0.075 ± 0.046
61 | F38N | 0.004 ± 0.14
62 | F38Q | -0.005 ± 0.064
63 | F38R | -0.041 ± 0.031
64 | F38S | -0.057 ± 0.037
65 | F38T | -0.119 ± 0.064
66 | F38V | -0.044 ± 0.03
67 | F38W | 0.024 ± 0.046
68 | F38Y | -0.009 ± 0.057
69 | K39A | -0.013 ± 0.049
70 | K39C | -0.08 ± 0.051
71 | K39D | -0.148 ± 0.068
72 | K39E | -0.114 ± 0.06

Row | Variant | abundance fitness
73 | K39G | -0.154 ± 0.045
74 | K39H | -0.08 ± 0.064
75 | K39I | -0.133 ± 0.064
76 | K39L | -0.059 ± 0.034
77 | K39M | -0.137 ± 0.038
78 | K39N | -0.077 ± 0.058
79 | K39P | -0.149 ± 0.035
80 | K39Q | -0.071 ± 0.044
81 | K39R | -0.003 ± 0.037
82 | K39S | -0.072 ± 0.03
83 | K39T | -0.103 ± 0.04
84 | K39V | -0.092 ± 0.038
85 | K39W | -0.194 ± 0.048
86 | K39Y | -0.148 ± 0.062
87 | T40A | -0.022 ± 0.038
88 | T40C | -0.006 ± 0.062
89 | T40D | -0.112 ± 0.052
90 | T40E | -0.027 ± 0.061
91 | T40F | -0.009 ± 0.055
92 | T40G | -0.048 ± 0.042
93 | T40H | -0.064 ± 0.047
94 | T40I | -0.032 ± 0.044
95 | T40K | -0.065 ± 0.048
96 | T40L | -0.087 ± 0.026

Row | Variant | abundance fitness
97 | T40M | -0.04 ± 0.04
98 | T40N | -0.078 ± 0.048
99 | T40P | -0.227 ± 0.036
100 | T40Q | -0.041 ± 0.041
101 | T40R | -0.043 ± 0.032
102 | T40S | -0.023 ± 0.034
103 | T40V | -0.043 ± 0.041
104 | T40W | -0.076 ± 0.051
105 | T40Y | -0.037 ± 0.051
106 | L41A | -0.111 ± 0.041
107 | L41C | -0.121 ± 0.054
108 | L41D | -0.554 ± 0.069
109 | L41E | -0.482 ± 0.044
110 | L41F | -0.199 ± 0.047
111 | L41G | -0.355 ± 0.034
112 | L41H | -0.616 ± 0.063
113 | L41I | 0.003 ± 0.064
114 | L41K | -0.721 ± 0.047
115 | L41M | -0.01 ± 0.04
116 | L41N | -0.515 ± 0.062
117 | L41P | -0.46 ± 0.044
118 | L41R | -0.625 ± 0.03
119 | L41S | -0.433 ± 0.039
120 | L41T | -0.299 ± 0.037

Row | Variant | abundance fitness
121 | L41V | -0.042 ± 0.033
122 | L41W | -0.359 ± 0.033
123 | L41Y | -0.368 ± 0.061
124 | E42A | 0.018 ± 0.041
125 | E42C | -0.013 ± 0.064
126 | E42D | 0.004 ± 0.072
127 | E42F | -0.048 ± 0.049
128 | E42G | -0.001 ± 0.036
129 | E42H | 0.008 ± 0.11
130 | E42I | -0.051 ± 0.055
131 | E42K | 0.017 ± 0.06
132 | E42L | -0.006 ± 0.031
133 | E42M | -0.006 ± 0.048
134 | E42N | -0.02 ± 0.065
135 | E42P | -0.043 ± 0.042
136 | E42Q | 0.043 ± 0.066
137 | E42T | -0.011 ± 0.052
138 | E42V | -0.008 ± 0.028
139 | E42Y | -0.036 ± 0.059
140 | E43A | 0.023 ± 0.047
141 | E43C | 0.032 ± 0.092
142 | E43G | 0.04 ± 0.04
143 | E43H | 0.03 ± 0.087
144 | E43I | -0.031 ± 0.065

Row | Variant | abundance fitness
145 | E43K | 0.059 ± 0.069
146 | E43L | -0.012 ± 0.034
147 | E43M | 0.022 ± 0.056
148 | E43N | 0.01 ± 0.076
149 | E43P | 0.004 ± 0.045
150 | E43Q | 0.025 ± 0.058
151 | E43R | 0.032 ± 0.039
152 | E43S | -0.014 ± 0.038
153 | E43T | 0.025 ± 0.052
154 | E43V | -0.033 ± 0.05
155 | E43W | -0.045 ± 0.034
156 | E43Y | -0.017 ± 0.078
157 | G44A | -0.049 ± 0.037
158 | G44C | 0.005 ± 0.052
159 | G44D | 0.019 ± 0.099
160 | G44E | -0.05 ± 0.054
161 | G44F | -0.126 ± 0.059
162 | G44H | 0.014 ± 0.083
163 | G44I | -0.567 ± 0.077
164 | G44K | -0.041 ± 0.055
165 | G44L | -0.076 ± 0.031
166 | G44M | -0.043 ± 0.047
167 | G44N | -0.086 ± 0.1
